Measured values taken from paper doi:10.1101/2025.11.18.689162 (bioRxiv, 2025).

Biological target: cardiac troponin I (TPNI), mouse, endogenous (mouse (endogenous in heart), UniProt P48787 1-211)
Experiment: cell-based or functional assay

Sequence of cardiac troponin I (TPNI), mouse, endogenous (P48787 whole entry): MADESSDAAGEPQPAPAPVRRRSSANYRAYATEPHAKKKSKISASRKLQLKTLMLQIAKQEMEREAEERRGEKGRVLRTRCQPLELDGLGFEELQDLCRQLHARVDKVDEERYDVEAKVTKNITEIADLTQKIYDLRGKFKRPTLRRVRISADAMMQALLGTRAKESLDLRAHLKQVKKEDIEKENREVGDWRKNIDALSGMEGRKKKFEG

B1: PDE4D9, mouse, endogenous (enzyme, mouse (endogenous in heart), UniProt Q01063-2 1-678, looked up)
chain: MSIIMKPRSRSTSSLRTTEAVCFDVDNGTSAGRSPLDPMTSPGSGLILQANFVHSQRRESFLYRSDSDYDLSPKSMSRNSSIASDIHGDDLIVTPFAQVLASLRTVRNNFAALTNLQDRAPSKRSPMCNQPSINKATITEEAYQKLASETLEELDWCLDQLETLQTRHSVSEMASNKFKRMLNRELTHLSEMSRSGNQVSEYISNTFLDKQHEVEIPSPTQKEKEKKKRPMSQISGVKKLMHSSSLTNSCIPRFGVKTEQEDVLAKELEDVNKWGLHVFRIAELSGNRPLTVIMHTIFQERDLLKTFKIPVDTLITYLMTLEDHYHADVAYHNNIHAADVVQSTHVLLSTPALEAVFTDLEILAAIFASAIHDVDHPGVSNQFLINTNSELALMYNDSSVLENHHLAVGFKLLQEENCDIFQNLTKKQRQSLRKMVIDIVLATDMSKHMNLLADLKTMVETKKVTSSGVLLLDNYSDRIQVLQNMVHCADLSNPTKPLQLYRQWTDRIMEEFFRQGDRERERGMEISPMCDKHNASVEKSQVGFIDYIVHPLWETWADLVHPDAQDILDTLEDNREWYQSTIPQSPSPAPDDQEEGRQGQTEKFQFELTLEEDCESDTEKDSGSQVEEDTSCSDSKTLCTQDSESTEIPLDEQVEEEAVAEEESQPETCVPDDCCPDT
Q: For B1, which “TPNI phosphorylation in TAC mice treated with scAAV9-P33 against scAAV9-SC” value is on record?
A: The value was 2.8 fold.
